Assay: soluble on expression in E. coli; label from the status in PepcDB or PDB records
In the case of “MAKPLMAKATAVWLVDNTTISFKQIADFVGMHELEIQGIADGDVAAGVKGFDPIANNQLTQEEIDKAEQNPLHKLKLKFNPAAAGEEKRRGPRYTPLSKRQDRPNAILWLVKFHPELSDGQIAKLVGTTKPTIQSIRERTHWNISNMQPIDPVALGLCRQSELDSVVQKAAAKKAAEGGVMSDDERRKLVSTEQSLGMDTGPRIPTAIEGLENFSLSEPISTSDDDEEDHRSIADADSFFNLPKGGTDDEDEDDDPRYLEHHHHHH”, the “soluble on expression in E. coli” value is reported as “soluble”. For “MPVSLLKAHEAEMWEVHFHPSNPDHLFTCSEDGSLWHWDASTNAPEKSSLFHQGGRSSTFLSHSLSNQAGVHQSLVSSWLSTDPAKDRIEITSLLPSRTLSVNSLDVLGPCLVCGTDAEAIYVTRQLFS”, the “soluble on expression in E. coli” value was “not soluble”. In the case of “MIRIENLTKKFDRKVLDNITISLPKNRVSVIVGINGSGKTTLLDCIVGLKDATSGKVFIESYSNDSEKFKECIFYIPSEFYLPNYMTGKEYLNFVLSRYRCSDIERIDDFLELFDLKFAGTNLIESYSFGMKKKIQIVAAALANTDYILGDEIFNGLDFETTLLTLELFENLSREVGIVIISHNKLIIERFSENILLMSNGNLTPFLGASENLEKEVISTEKIHEKIKYIKGYHPINRVIY”, the “soluble on expression in E. coli” value is reported as “not soluble”. For “GSHMIVQIGRREEFDKKLLGEMHKLRAQVFKERKGWDVSVIDEMEIDGYDALSPYYMLIQEDGQVFGCWRILDTTGPYMLKNTFPELLHGKEAPCSPHIWELSRFAINSGQKGSLGFSDCTLEAMRALARYSLQNDIQTLVTVTTVGVEKMMIRAGLDVSRFGPHLKIGIERAVALRIELNAKTQIALYGGVLVEQRLAVS”, the “soluble on expression in E. coli” value was “soluble”. For “MFARAPFVRLLSTTSRNLAEAEKKVSKEALMALRKKTGYSYVNCRKALIQFGENDMDSAVKWLKEAAAKEGWAKAAKLGTRVTSNGLVSVVTDNSTAAVVELSCETDFVARSGAFKDLLSNISNSVLAKAKPQSISSGSKLQEFTYDLGDLTDSDGKNMREVLSLSIGKLGENMTVRRVKAFKAPEGTTLFGASHPKDGTDDIPMGRFISLIALNQSSPGSISSQQLAGQICQHIIGMSPESLGEAAESVKTQEGLRSQEGHDPNADPVVVTNIDESETALLRQAFMLNPSQSVHEYLKSHNANILDFVRVELGSE”, the “soluble on expression in E. coli” value was “not soluble”. In the case of “IDGIFIMDAEGHYLDVNPAICSAIGYTRDEFLALDWGVLSRGVDSGWAAASLARIVGGEPLREERTVWTRNGDQLTVELSAHLLPD”, the “soluble on expression in E. coli” value is reported as “not soluble”. In the case of “MPAISMFYGIVIYLYFYDDERHKIPHIHAKYQGEDASVSIANGEILAGDIPLSKLRLVQAWIEIHRDALMADWALAVNGQPPFAIEPLRLEHHHHHH”, the “soluble on expression in E. coli” value is reported as “not soluble”. In the case of “MKTIEVDDELYSYIASHTKHIGESRSDILRRMLKFSAASQKPVKTIKDKVRAMRELLLSDEYAEQKRAVNRFMLLLSTLYSLDAQAFAEATESLHGRTRVYFAADEQTLLKNGNQTKPKHVPGTPYWVITNTNTGRKCSMIEHIMQSMQFPAELIEKVCGTI”, the “soluble on expression in E. coli” value is reported as “soluble”. In the case of “MSLALSTEQKTKMWAMLNQTRGQIGLTAYKDYIFGILFYKYLSEKATHWLNGVLRGENWENVYSQDSVKALNYMKKNLGYAIQPNEFFVDWKKAIDTDRFNIGMMTDTFTHFNQQIAFEAKNDFEGIFDGMRFDSADLGANAQARASVMISMIELLSSPEFDLSGSNDTVSDIYEYLVAQFATVLASDMGQYYTPKEISNVMARILTFGREDMEKFSIFDPTVGSGSLLLTTASYMKNSGRRGVIKYYGQEKDATPYRLSRMNLMMHGIEYNDININHADTLESDWPDGVVDGKDTPRMFDAVMANPPYSAHWNNKDREDDPRWREYGVSPKTKADYAFLLHCLYHLEDNGRMAIILPHGVLFRGASEGRIRKALIDKHQIEAIIGFPDKLFLNTSIPVCVVILRKNRIESDILFVDASKGFEKIKKQNNLRSEDVEKIVDTVINRKEIEKYSHVATLDEIKENDYNLNIPRYVDTFEEEEAIDLVALGNEMVTLNADIKKAETDFLGLLDELAVTPDTKEIIEATKAVFREGHHHHHH”, the “soluble on expression in E. coli” value is reported as “soluble”. In the case of “MTGRPEDSVIDIYQRHGAAWAKLRGDRLAEGGWLDRFCELLPATASVLDIGCGSGLPIARELVRRGFDVTGVDGASTMLALFRRNLPGTPAHLADMRELALGRRFDGLLAWDSFFHLSPADQRAMFRRFQAHAAAGAALMFTSGPAEGSAIGELAGDRLYHGSLGSDDYRALLDASGFEGVDHIVEDPTCGYRTIWLARQRRLEHHHHHH”, the “soluble on expression in E. coli” value is reported as “not soluble”. In the case of “MKIFSRLGHVLLICSSLIIAIPAHSADSSTTTKAGVKKTVKKQELSANSALVIDLKTNEIIYSNNPDAVKPIASVTKLMTAIVTLDAKLPMDAKLPITIKDAKEMKGVHSRVKIGSEISRKDMLLLTLMSSENRAAASLAHHYPGGYKAFIKAMNAKAKALGMKNTRFVEPTGLSAKNVSTARDLVVLLKASKKYPLLGKLSATDKKTVTFSKPRYTLDFRNTNRLVHNDNWKIDLTKTGFTNAAGHCLVMRTQMGRRQVAFVVLDTKGKLSPVGDANRLRTWIETGKVTPLSSEAKQYKKQRSQEQIAKISDYKS”, the “soluble on expression in E. coli” value is reported as “not soluble”. With “MSLNNTPRYPQRVRNDLRFRELTVLRVERISAGFQRIVLGGEALDGFTSRGFDDHSKLFFPQPDAHFVPPTVTEEGIVWPEGPRPPSRDYTPLYDELRHELAIDFFIHDGGVASGWAMQAQPGDKLTVAGPRGSLVVPEDYAYQLYVCDESGMPALRRRLETLSKLAVKPQVSALVSVRDNACQDYLAHLDGFNIEWLAHDEQAVDARLAQMQIPADDYFIWITGEGKVVKNLSRRFEAEQYDPQRVRAAAYWHAKEGGSHHHHHH” the “soluble on expression in E. coli” value was “soluble”. With “MGSDKIHHHHHHMNSLEQLRQAEQALLEIFSGIDAQVKQNLKRVLEAFRNQRVGAHHFAGVSGYGHDDLGRETLDKVFAEVMGAEAAAVRVQFVSGTHAIACALFGVLRPGDEMLAVVGSPYDTLEEVIGLRGQGQGSLIEFGIKYRQLELTSQGSIDWQTLSTSITDNTRLVLIQRSCGYSWRPSLSIADIEKVVNLVKQQNPDTVCFVDNCYGEFIETQEPTHVGADLMAGSLIKNPGGTIVTAGGYVAGRADLVEAAACRLTAPGIGSYGGATFDQNRLLFQGLFLSPQMVGEAMKGTHLTGYVFDKLGYPVNPAPLAPRGDVIQAIKLGSGKKLIAFCKAVQQNSPVGSYLDPVPDDMPGYESQVVMAGGTFIEGSTLEFSADGPLREPYVVYCQGGTHWSHVAIALEAAIDAVGEA” the “soluble on expression in E. coli” value was “not soluble”. In the case of “KGSYDLIFGDKNTKNYYAKFAKDHQTHLYQKIKESKDEQFRFVETQETTNNLGN”, the “soluble on expression in E. coli” value is reported as “soluble”. With “MGSDKIHHHHHHMQPEIRKIVTYDEEVLIEGFRKADAPWRMFAIACVVRNPWAGRFVEDLKPEIMAYGPVLGELMTERMITLAGSGDAIEAYGKAAIVGVDGEVEHASGLIHTLRFGNFFREAVGANSYLAFTNTRGPANAPIMVPLMDKNDAGRRSHYLTIQFAIPDAPRADEIVVLLGAATSGRPHHRIGDRYQDLKDLGHDLDNPAAV” the “soluble on expression in E. coli” value was “not soluble”. In the case of “MLVTKKEISVANIGEELWRFSNSSYTTGSPWTETQFAEDFAQENSEYLFLVENGQWLGYIAYHFILDEAEISHVVVNGQKQHQGIGCQLMKAFKEYVKSRDITQIFLEVRESNILAQKLYEKTGFRKVAVRKNYYKEPQENAFVMCAKLRKEAQ”, the “soluble on expression in E. coli” value is reported as “not soluble”. With “MSLTTKYIFVTGGVVSSLGKGITAASLGRLLKNRGMKVTIQKFDPYINVDPGTMSPYQHGEVFVTDDGAETDLDLGHYERFIDINLNKNSNVTTGKIYSSVLKKERRGDYLGGTVQVIPHVTNEIKERVFRAGRETNADVVITEIGGTVGDIESLPFLEAIRQIKSDIGVDNVMYIHCTLIPYLAAAGEMKSKPTQHSVKELRSLGIQPNVIVVRTEKPVPEEMKEKIALFCDIRKDSVIEARDADTLYEVPLDLQAQNLDEIVCDHLNLSCQEADMTEWKSLVEKVKNLSGLVKIALVGKYVALPDAYLSVAEALRHAGYAFDADINIKWVDSEDVTAENVAEQLQGVDGILVPGGFGDRGIEGKIEAIRYAREQKIPFLGICLGMQLASIEFARNVLGLEGAHSAEINPDTPHPIIDLLPEQKDVEDMGGTLRLGLYPCKLKNGTLAQSAYNDQVIYERHRHRYEFNNQYREQMEAKGFMFSGTSPDGRLVEIVELGDHPFFIASQFHPEFVSRPTRPQPLFREFIQASLRKEGHHHHHH” the “soluble on expression in E. coli” value was “soluble”. With “MKNIATGGVLERIRRLAPPHVTAPFRTVAEWREWQLAEGQKRCEEINRQNRQLRVEKILNRSGIQPLHRKCSFANYQVQNDGQRYALSQAKSIADELVTGCTNFAFSGKPGTGKNHLAAAIGNRLLKDGQTVIVVTVADVMSALHASYDDGQSGEKFLRELCEVDLLVLDEIGIQRETKNEQVVLHQIVDRRTASMRSVGMLTNLNYEAMKTLLGERIMDRMTMNGGRWVNFNWESWRPNVGQPGIEK” the “soluble on expression in E. coli” value was “soluble”. With “MQLSWKDIPTVAPANDLLDIVLNRTQRKTPTVIRPGFKITRIRAFYMRKVKYTGEGFVEKFEDILKGFPNINDVHPFHRDLMDTLYEKNHYKISLAAISRAKSLVEQVARDYVRLLKFGQSLFQCKQLKRAALGRMATIVKKLRDPLAYLEQVRQHIGRLPSIDPNTRTLLICGYPNVGKSSFLRCITKSDVDVQPYAFTTKSLYVGHFDYKYLRFQAIDTPGILDRPTEEMNNIEMQSIYAIAHLRSCVLYFMDLSEQCGFTIEAQVKLFHSIKPLFANKSVMVVINKTDIIRPEDLDEERAQLLESVKEVPGVEIMTSSCQLEENVMEVRNKACEKLLASRIENKLKSQSRINNVLNKIHVAQPQARDDVKRTPFIPESVKNLKKYDPEDPNRRKLARDIEAENGGAGVFNVNLKDKYLLEDDEWKNDIMPEILDGKNVYDFLDPEIAAKLQALEEEEEKLENEGFYNSDDEEEIYDGFEASEVDDIKEKAAWIRNRQKTMIAEARNRKSLKNKAIMPRSKLTKSFGKMEEHMSTLGHDMSALQDKQNRAARKNRYVERGSDVVFGDQDALTASTENGVKLRQTDRLLDGVADGSMRSKADRMAKMERRERNRHAKQGESDRHNAVSLSKHLFSGKRGVGKTDFR” the “soluble on expression in E. coli” value was “not soluble”. For “MFSDYHVHSSFSFDSEESPRAIVEKAIALGMKQICFTDHQDFNWPIKGESPYIDFPKYFEVLNSLRNEYSSKINILKGVELGLTSDNFSLCHKFLDSYDFDFVIGSCHIVDQMDPYYAEFWKGKNDRDCFELYFKTLLDSLKFFIGRNTCTTPRTVNTLGHLDYIVRYSPNKDNNYSVADYIDVIDEILKMIIENDIKLEINTSNFSKGFDFPNPHTDIIRRYKELGGLYVTVGSDAHKAQFIGSGFDLVEKIVEKYKLKVFTI”, the “soluble on expression in E. coli” value was “not soluble”.
